In patent US20050124036:

Tested on: plasminogen according to the present invention (20 mg/ml, Example 8)

Substance	plasmin activity after activation
Elastase	0.63 U/mg
Endoproteinase Asp-N	4.3 U/mg
Endoproteinase Glu-C	0.6 U/mg
Ficin	0.01 U/mg
Protease VIII	9 U/mg
Protease XIII	0.01 U/mg
Protease XVIII	0.7 U/mg
Protease from S. griseus	613.3 U/mg
Proteinase A	0.02 U/mg
Thrombin	83.0 U/mg
Trypsin	11 kU/mg
